Assay results reported in publication PMC11570697, “2D4, a humanized monoclonal antibody targeting CD132, is a promising treatment for systemic lupus erythematosus” (Signal Transduction and Targeted Therapy, 2024).

Legend:
[1] = target: human CD132 (common gamma chain cytokine receptor) (human) (UniProt P31785)
[2] = target: human CD132 (common gamma chain cytokine receptor) (human, UniProt P31785); assay: cell-based or functional assay
Sequence of human CD132 (common gamma chain cytokine receptor) (P31785 23-262): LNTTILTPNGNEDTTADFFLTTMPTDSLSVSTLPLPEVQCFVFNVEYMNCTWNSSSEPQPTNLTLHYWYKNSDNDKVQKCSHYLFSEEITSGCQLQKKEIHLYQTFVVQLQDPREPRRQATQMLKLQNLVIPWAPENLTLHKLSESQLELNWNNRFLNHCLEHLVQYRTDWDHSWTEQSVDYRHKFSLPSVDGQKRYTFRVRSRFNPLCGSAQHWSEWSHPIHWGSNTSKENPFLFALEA

Sequence of human CD132 (common gamma chain cytokine receptor) (human) (P31785 23-262): as above

maximum percent inhibition of IL-2-induced STAT5 phosphorylation in CD3+ T cells of human PBMCs (gradient dilutions, up to 200 nM antibody) [1] [%] | IC50 of blocking human IL-21: IFN-γ secretion by NK92 cells (ELISA), relative to REGN7257 [2] [fold] | IC50 of blocking human IL-21: STAT3 phosphorylation in CD3+ T cells of human PBMCs (flow cytometry), relative to REGN7257 [2] [fold] | Molecule
100 | – | – | REGN7257, pan CD132 blocking monoclonal antibody
– | 10 | < 2 | 2D4, humanized anti-CD132 monoclonal antibody (antibody, V domains shown) VH: QVQLVQSGAEVKKPGSSVKVSCKTSGFNIEDIYLHWVRQAPGQGLEWMGRIDPANGKSNYDPKFQGRVTITADTSTSTAYMELSSLRSEDTAVYYCAALRFFGLDYWGQGTLVTVSS VL: EIVLTQSPATLSLSPGERATLSCRATSSVSYMYWYQQKPGQAPELLIYRTSNLASGIPARFSGSGSGTDYTLTISSLEPEDFAVYYCQQWSSNPPTFGQGTKLEIK
